Among the data in PMC10786891, “Massively parallel profiling of RNA-targeting CRISPR-Cas13d” are Kd values, retold here.

T1: EsCas13d, nuclease-dead (Eubacterium siraeum, UniProt B0MS50, R295A;H300A;R849A;H854A)
T1 sequence: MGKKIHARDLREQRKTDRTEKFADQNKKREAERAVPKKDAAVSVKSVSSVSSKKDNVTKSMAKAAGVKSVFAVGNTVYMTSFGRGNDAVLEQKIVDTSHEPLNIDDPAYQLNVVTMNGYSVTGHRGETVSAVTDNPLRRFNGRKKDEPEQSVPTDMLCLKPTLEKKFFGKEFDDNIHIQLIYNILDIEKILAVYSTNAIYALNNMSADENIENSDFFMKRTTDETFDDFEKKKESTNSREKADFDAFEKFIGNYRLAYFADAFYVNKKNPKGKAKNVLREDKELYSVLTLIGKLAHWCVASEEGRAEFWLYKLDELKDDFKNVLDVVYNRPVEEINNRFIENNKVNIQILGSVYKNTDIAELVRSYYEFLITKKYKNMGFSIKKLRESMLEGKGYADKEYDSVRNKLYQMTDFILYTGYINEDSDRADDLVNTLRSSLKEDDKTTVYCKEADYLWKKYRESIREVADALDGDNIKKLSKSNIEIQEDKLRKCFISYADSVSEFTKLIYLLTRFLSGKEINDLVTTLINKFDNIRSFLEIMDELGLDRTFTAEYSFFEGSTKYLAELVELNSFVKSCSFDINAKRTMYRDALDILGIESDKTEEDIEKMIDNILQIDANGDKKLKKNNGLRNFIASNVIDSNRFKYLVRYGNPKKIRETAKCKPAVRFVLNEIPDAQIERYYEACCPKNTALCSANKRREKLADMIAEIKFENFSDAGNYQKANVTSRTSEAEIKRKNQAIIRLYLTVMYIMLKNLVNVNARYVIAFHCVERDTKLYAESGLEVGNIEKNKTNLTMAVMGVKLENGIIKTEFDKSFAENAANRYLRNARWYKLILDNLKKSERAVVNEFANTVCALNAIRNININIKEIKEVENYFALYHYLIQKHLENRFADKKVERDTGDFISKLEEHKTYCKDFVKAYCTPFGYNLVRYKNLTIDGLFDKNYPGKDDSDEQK

B1: target 1 A18C,U19A (mixed)
RNA 1: CACCCGUGCAAAAAUGCAGGGGUCUAAAACUGAGCGGAUAACCUCUCUAUGG
RNA 2: GGGAAUGGAUCCACAUCUACGAAUUCGUACCAACGAGAGGUUAUCCGCUCACCGAGAUCGGAAGAGCACACGU
B2: target 1 insC 3' of 22,insA 3' of 6 (mixed)
RNA 1: CACCCGUGCAAAAAUGCAGGGGUCUAAAACUGAGCGGAUAACCUCUCUAUGG
RNA 2: GGGAAUGGAUCCACAUCUACGAAUUCGUACCCAUAGAGAGGUUAUCCAGCUCACCGAGAUCGGAAGAGCACACGU
B3: target 1 complement block 2-7 (mixed)
RNA 1: CACCCGUGCAAAAAUGCAGGGGUCUAAAACUGAGCGGAUAACCUCUCUAUGG
RNA 2: GGGAAUGGAUCCACAUCUACGAAUUCGUACCAUAGAGAGGUUAUGGCGAGACCGAGAUCGGAAGAGCACACGU
B4: target 2 MT 5'PFS AUC 3'PFS CUA (mixed)
RNA 1: CACCCGUGCAAAAUUGCAGGGGUCUAAAACCUUCUCCAAAUUGUUUCAUCCU
RNA 2: GGGAAUGGAUCCACAUCUACGAAUUCAUCAGGAUGAAACAAUUUGGAGAAGCUAAGAUCGGAAGAGCACACGU
B5: target 2 MT 5'PFS GUU 3'PFS ACG (mixed)
RNA 1: CACCCGUGCAAAAUUGCAGGGGUCUAAAACCUUCUCCAAAUUGUUUCAUCCU
RNA 2: GGGAAUGGAUCCACAUCUACGAAUUCGUUAGGAUGAAACAAUUUGGAGAAGACGAGAUCGGAAGAGCACACGU
B6: target 2 MT 5'PFS GUG 3'PFS CAG (mixed)
RNA 1: CACCCGUGCAAAAUUGCAGGGGUCUAAAACCUUCUCCAAAUUGUUUCAUCCU
RNA 2: GGGAAUGGAUCCACAUCUACGAAUUCGUGAGGAUGAAACAAUUUGGAGAAGCAGAGAUCGGAAGAGCACACGU
B7: target 2 MT 5'PFS GUU 3'PFS ACA (mixed)
RNA 1: CACCCGUGCAAAAUUGCAGGGGUCUAAAACCUUCUCCAAAUUGUUUCAUCCU
RNA 2: GGGAAUGGAUCCACAUCUACGAAUUCGUUAGGAUGAAACAAUUUGGAGAAGACAAGAUCGGAAGAGCACACGU
B8: target 2 MT 5'PFS AGU 3'PFS CAG (mixed)
RNA 1: CACCCGUGCAAAAUUGCAGGGGUCUAAAACCUUCUCCAAAUUGUUUCAUCCU
RNA 2: GGGAAUGGAUCCACAUCUACGAAUUCAGUAGGAUGAAACAAUUUGGAGAAGCAGAGAUCGGAAGAGCACACGU
B9: target 2 MT 5'PFS AGC 3'PFS ACG (mixed)
RNA 1: CACCCGUGCAAAAUUGCAGGGGUCUAAAACCUUCUCCAAAUUGUUUCAUCCU
RNA 2: GGGAAUGGAUCCACAUCUACGAAUUCAGCAGGAUGAAACAAUUUGGAGAAGACGAGAUCGGAAGAGCACACGU
B10: target 2 MT 5'PFS AUC 3'PFS CUC (mixed)
RNA 1: CACCCGUGCAAAAUUGCAGGGGUCUAAAACCUUCUCCAAAUUGUUUCAUCCU
RNA 2: GGGAAUGGAUCCACAUCUACGAAUUCAUCAGGAUGAAACAAUUUGGAGAAGCUCAGAUCGGAAGAGCACACGU
B11: target 2 MT 5'PFS AGC 3'PFS ACU (mixed)
RNA 1: CACCCGUGCAAAAUUGCAGGGGUCUAAAACCUUCUCCAAAUUGUUUCAUCCU
RNA 2: GGGAAUGGAUCCACAUCUACGAAUUCAGCAGGAUGAAACAAUUUGGAGAAGACUAGAUCGGAAGAGCACACGU
B12: target 2 MT 5'PFS AGA 3'PFS CAC (mixed)
RNA 1: CACCCGUGCAAAAUUGCAGGGGUCUAAAACCUUCUCCAAAUUGUUUCAUCCU
RNA 2: GGGAAUGGAUCCACAUCUACGAAUUCAGAAGGAUGAAACAAUUUGGAGAAGCACAGAUCGGAAGAGCACACGU
B13: target 2 MT 5'PFS AGA 3'PFS CAA (mixed)
RNA 1: CACCCGUGCAAAAUUGCAGGGGUCUAAAACCUUCUCCAAAUUGUUUCAUCCU
RNA 2: GGGAAUGGAUCCACAUCUACGAAUUCAGAAGGAUGAAACAAUUUGGAGAAGCAAAGAUCGGAAGAGCACACGU
B14: target 2 MT 5'PFS AGA 3'PFS CAG (mixed)
RNA 1: CACCCGUGCAAAAUUGCAGGGGUCUAAAACCUUCUCCAAAUUGUUUCAUCCU
RNA 2: GGGAAUGGAUCCACAUCUACGAAUUCAGAAGGAUGAAACAAUUUGGAGAAGCAGAGAUCGGAAGAGCACACGU
B15: target 2 MT 5'PFS CGC 3'PFS UUA (mixed)
RNA 1: CACCCGUGCAAAAUUGCAGGGGUCUAAAACCUUCUCCAAAUUGUUUCAUCCU
RNA 2: GGGAAUGGAUCCACAUCUACGAAUUCCGCAGGAUGAAACAAUUUGGAGAAGUUAAGAUCGGAAGAGCACACGU
B16: target 2 MT 5'PFS AGA 3'PFS CAU (mixed)
RNA 1: CACCCGUGCAAAAUUGCAGGGGUCUAAAACCUUCUCCAAAUUGUUUCAUCCU
RNA 2: GGGAAUGGAUCCACAUCUACGAAUUCAGAAGGAUGAAACAAUUUGGAGAAGCAUAGAUCGGAAGAGCACACGU
B17: target 2 MT 5'PFS AGA 3'PFS AGC (mixed)
RNA 1: CACCCGUGCAAAAUUGCAGGGGUCUAAAACCUUCUCCAAAUUGUUUCAUCCU
RNA 2: GGGAAUGGAUCCACAUCUACGAAUUCAGAAGGAUGAAACAAUUUGGAGAAGAGCAGAUCGGAAGAGCACACGU
B18: target 2 MT 5'PFS AUC 3'PFS CUU (mixed)
RNA 1: CACCCGUGCAAAAUUGCAGGGGUCUAAAACCUUCUCCAAAUUGUUUCAUCCU
RNA 2: GGGAAUGGAUCCACAUCUACGAAUUCAUCAGGAUGAAACAAUUUGGAGAAGCUUAGAUCGGAAGAGCACACGU
B19: target 2 MT 5'PFS AGU 3'PFS CAU (mixed)
RNA 1: CACCCGUGCAAAAUUGCAGGGGUCUAAAACCUUCUCCAAAUUGUUUCAUCCU
RNA 2: GGGAAUGGAUCCACAUCUACGAAUUCAGUAGGAUGAAACAAUUUGGAGAAGCAUAGAUCGGAAGAGCACACGU
B20: target 2 MT 5'PFS GUU 3'PFS ACC (mixed)
RNA 1: CACCCGUGCAAAAUUGCAGGGGUCUAAAACCUUCUCCAAAUUGUUUCAUCCU
RNA 2: GGGAAUGGAUCCACAUCUACGAAUUCGUUAGGAUGAAACAAUUUGGAGAAGACCAGAUCGGAAGAGCACACGU
B21: target 2 MT 5'PFS AGU 3'PFS CAC (mixed)
RNA 1: CACCCGUGCAAAAUUGCAGGGGUCUAAAACCUUCUCCAAAUUGUUUCAUCCU
RNA 2: GGGAAUGGAUCCACAUCUACGAAUUCAGUAGGAUGAAACAAUUUGGAGAAGCACAGAUCGGAAGAGCACACGU
B22: target 2 MT 5'PFS UAG 3'PFS UAC (mixed)
RNA 1: CACCCGUGCAAAAUUGCAGGGGUCUAAAACCUUCUCCAAAUUGUUUCAUCCU
RNA 2: GGGAAUGGAUCCACAUCUACGAAUUCUAGAGGAUGAAACAAUUUGGAGAAGUACAGAUCGGAAGAGCACACGU
B23: target 2 MT 5'PFS AGC 3'PFS ACA (mixed)
RNA 1: CACCCGUGCAAAAUUGCAGGGGUCUAAAACCUUCUCCAAAUUGUUUCAUCCU
RNA 2: GGGAAUGGAUCCACAUCUACGAAUUCAGCAGGAUGAAACAAUUUGGAGAAGACAAGAUCGGAAGAGCACACGU
B24: target 2 MT 5'PFS GUG 3'PFS CAC (mixed)
RNA 1: CACCCGUGCAAAAUUGCAGGGGUCUAAAACCUUCUCCAAAUUGUUUCAUCCU
RNA 2: GGGAAUGGAUCCACAUCUACGAAUUCGUGAGGAUGAAACAAUUUGGAGAAGCACAGAUCGGAAGAGCACACGU
B25: target 2 MT 5'PFS UAG 3'PFS UAG (mixed)
RNA 1: CACCCGUGCAAAAUUGCAGGGGUCUAAAACCUUCUCCAAAUUGUUUCAUCCU
RNA 2: GGGAAUGGAUCCACAUCUACGAAUUCUAGAGGAUGAAACAAUUUGGAGAAGUAGAGAUCGGAAGAGCACACGU
B26: target 2 MT 5'PFS GUU 3'PFS ACU (mixed)
RNA 1: CACCCGUGCAAAAUUGCAGGGGUCUAAAACCUUCUCCAAAUUGUUUCAUCCU
RNA 2: GGGAAUGGAUCCACAUCUACGAAUUCGUUAGGAUGAAACAAUUUGGAGAAGACUAGAUCGGAAGAGCACACGU
B27: target 2 MT 5'PFS AAU 3'PFS UCA (mixed)
RNA 1: CACCCGUGCAAAAUUGCAGGGGUCUAAAACCUUCUCCAAAUUGUUUCAUCCU
RNA 2: GGGAAUGGAUCCACAUCUACGAAUUCAAUAGGAUGAAACAAUUUGGAGAAGUCAAGAUCGGAAGAGCACACGU

The data set addresses T1, EsCas13d, nuclease-dead. Kind of data set: crRNA (strand 1, pre-loaded); Mg2+; 40 mM Tris-HCl pH 7.5, 150 mM NaCl, 6 mM MgCl2, 1 mM DTT, 0.1% Tween-20, 0.2 mg/ml BSA; 25 C; 10 min per concentration, then washed. As to conditions: tags: His6-TwinStrep-SUMO cleaved; N-terminal SNAP kept (SNAP-Surface 488); label: 3' end held by stalled T7 RNA polymerase.
B1: the Kd was found to be 49 ± 4 nM.

B2 returned a dissociation constant (Kd) of 12.9 ± 0.9 nM.

B3 gave a Kd of 13.8 ± 0.7 nM.

In turn, B4 came in with a Kd of around 90 nM.

Molecule B5 yielded a dissociation constant Kd of 17.5 ± 1.4 nM.

The molecule B6 registered a dissociation constant (Kd) of 10.5 ± 0.8 nM.

In the case of B7, the Kd came to 17.5 ± 2.3 nM.

In turn, B8 displayed a Kd of 14.2 ± 3.1 nM.

B9 showed a Kd of 7.1 ± 0.9 nM.

Molecule B10 yielded an equilibrium dissociation constant (Kd) of 66 ± 25 nM.

For the molecule B11, the affinity, expressed as Kd, was 17 ± 6 nM.

The molecule B12 had a Kd of 7.4 ± 1.6 nM.

Regarding B13, the dissociation constant Kd was found to be 3.5 ± 0.8 nM.

With B14, the Kd turned out to be 5.7 ± 0.8 nM.

B15 showed a Kd of 11.1 ± 2.5 nM.

B16 yielded a dissociation constant Kd of 8 ± 1.9 nM.

B17 returned a Kd of 5.6 ± 1.2 nM.

Molecule B18 registered a Kd of around 90 nM.

In turn, B19 showed a Kd of 11.1 ± 2.7 nM.

Take B20: the Kd came out at 18.1 ± 3 nM.

For the molecule B21, the affinity, expressed as Kd, was 15 ± 5 nM.

Molecule B22 yielded a Kd of 2.65 ± 0.29 nM.

Consider B23, for which the Kd is 7.9 ± 3.2 nM.

Molecule B24 displayed a Kd of 10.6 ± 1 nM.

Molecule B25 had a dissociation constant (Kd) of 3.7 ± 0.4 nM.

On to B26, for which binding was characterised by a dissociation constant (Kd) of 15.5 ± 1 nM.

The molecule B27 registered a Kd of 10.4 ± 3.5 nM.

By Kd is commonly meant the constant that tells how readily two partners part at equilibrium. Read a high Kd as a looser complex.
